The values that follow come from patent US20250262210A1 (TRUSTEES OF COLUMBIA UNIVERSITY IN THE CITY OF NEW YORK, published 2025).

The assay concerns the target T1, RANBP6 (human, UniProt O60518 2-1105).
T1 sequence (looked up): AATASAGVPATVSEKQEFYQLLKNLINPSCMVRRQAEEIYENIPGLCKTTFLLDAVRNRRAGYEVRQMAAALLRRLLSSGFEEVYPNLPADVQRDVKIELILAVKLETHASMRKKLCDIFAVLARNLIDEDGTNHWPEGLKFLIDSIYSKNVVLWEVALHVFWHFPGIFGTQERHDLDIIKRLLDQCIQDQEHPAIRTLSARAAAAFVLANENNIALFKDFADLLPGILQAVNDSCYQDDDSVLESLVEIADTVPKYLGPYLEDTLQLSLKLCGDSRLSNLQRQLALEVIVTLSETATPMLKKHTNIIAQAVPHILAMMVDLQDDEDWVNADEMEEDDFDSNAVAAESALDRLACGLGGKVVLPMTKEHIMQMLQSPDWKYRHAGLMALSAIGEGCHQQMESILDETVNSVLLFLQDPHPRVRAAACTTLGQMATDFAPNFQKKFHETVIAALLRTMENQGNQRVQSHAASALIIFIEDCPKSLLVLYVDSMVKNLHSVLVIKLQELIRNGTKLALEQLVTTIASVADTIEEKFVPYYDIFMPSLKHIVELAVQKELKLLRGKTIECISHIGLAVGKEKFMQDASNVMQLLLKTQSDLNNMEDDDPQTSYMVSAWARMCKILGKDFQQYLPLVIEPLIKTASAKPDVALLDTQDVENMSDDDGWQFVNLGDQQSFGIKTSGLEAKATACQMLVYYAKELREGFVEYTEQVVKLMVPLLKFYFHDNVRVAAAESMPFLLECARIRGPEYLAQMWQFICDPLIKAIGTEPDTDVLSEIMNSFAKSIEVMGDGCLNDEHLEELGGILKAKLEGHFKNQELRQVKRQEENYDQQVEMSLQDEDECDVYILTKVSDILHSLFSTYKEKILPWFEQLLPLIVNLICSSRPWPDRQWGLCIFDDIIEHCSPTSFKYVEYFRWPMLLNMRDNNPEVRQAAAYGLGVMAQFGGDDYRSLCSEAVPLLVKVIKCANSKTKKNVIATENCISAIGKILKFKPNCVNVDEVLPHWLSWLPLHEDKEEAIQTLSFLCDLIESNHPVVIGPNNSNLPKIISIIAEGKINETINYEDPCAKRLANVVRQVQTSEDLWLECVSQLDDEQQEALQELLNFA
Put plainly: IP/MS, LZTR1 R810W-FLAG, U87. The gist of the method:
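Extracted peptides in 3% acetonitrile/0.1% formic acid ran on a 50 cm C18 column into an Orbitrap Fusion, with MaxQuant identification and spectral counting.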

B1: LZTR1 R810W-FLAG (other, human, UniProt Q8N653 1-840, looked up)
chain: MAGPGSTGGQIGAAALAGGARSKVAPSVDFDHSCSDSVEYLTLNFGPFETVHRWRRLPPCDEFVGARRSKHTVVAYKDAIYVFGGDNGKTMLNDLLRFDVKDCSWCRAFTTGTPPAPRYHHSAVVYGSSMFVFGGYTGDIYSNSNLKNKNDLFEYKFATGQWTEWKIEGRLPVARSAHGATVYSDKLWIFAGYDGNARLNDMWTIGLQDRELTCWEEVAQSGEIPPSCCNFPVAVCRDKMFVFSGQSGAKITNNLFQFEFKDKTWTRIPTEHLLRGSPPPPQRRYGHTMVAFDRHLYVFGGAADNTLPNELHCYDVDFQTWEVVQPSSDSEVGGAEVPERACASEEVPTLTYEERVGFKKSRDVFGLDFGTTSAKQPTQPASELPSGRLFHAAAVISDAMYIFGGTVDNNIRSGEMYRFQFSCYPKCTLHEDYGRLWESRQFCDVEFVLGEKEECVQGHVAIVTARSRWLRRKITQARERLAQKLEQEAAPVPREAPGVAAGGARPPLLHVAIREAEARPFEVLMQFLYTDKIKYPRKGHVEDVLLIMDVYKLALSFQLCRLEQLCRQYIEASVDLQNVLVVCESAARLQLSQLKEHCLNFVVKESHFNQVIMMKEFERLSSPLIVEIVRRKQQPPPRTPLDQPVDIGTSLIQDMKAYLEGAGAEFCDITLLLDGHPRPAHKAILAARSSYFEAMFRSFMPEDGQVNISIGEMVPSRQAFESMLRYIYYGEVNMPPEDSLYLFAAPYYYGFYNNRLQAYCKQNLEMNVTVQNVLQILEAADKTQALDMKRHCLHIIVHQFTKVSKLPTLWSLSQQLLLDIIDSLASHISDKQCAELGADI
notes: Stably expressed in U87 cells by lentivirus; also called LZTR1-FLAG-R810W; LZTR1 RW; not shown: FLAG tag
For the molecule B1, the binding result was “binds”.
